Measurements reported in US20250179187A1, “ANTI PD-L2 ANTIBODY” (REJUVERON SENESCENCE THERAPEUTICS AG, priority 2022, published 2025).

T1: human PD-L2 antigen (Homo sapiens, UniProt Q9BQ51)
T1 sequence (Q9BQ51 20-273): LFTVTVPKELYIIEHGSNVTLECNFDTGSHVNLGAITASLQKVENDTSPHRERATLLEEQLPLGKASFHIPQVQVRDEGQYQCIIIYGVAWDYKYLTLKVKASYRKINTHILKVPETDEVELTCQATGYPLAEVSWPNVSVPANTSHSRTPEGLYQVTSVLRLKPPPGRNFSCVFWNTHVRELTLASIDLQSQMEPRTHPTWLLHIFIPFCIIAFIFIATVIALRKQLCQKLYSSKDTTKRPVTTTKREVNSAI


Target: T1, human PD-L2 antigen
Assay: Single cycle kinetics on Biacore 8K, binding to human PD-L2 antigen
Settings: Table 2, cell culture supernatants
Source text: Table 2: Single cycle kinetic parameters of chimeric (VH0/VK0) and humanized variants (tested as cell culture supernatants) binding to human PD-L2 antigen as determined using the Biacore 8K. As used herein, the term “KD” is intended to refer to the dissociation equilibrium constant of a particular antibody-antigen interaction, ka is the binding rate constant and kd is the dissociation rate constant. The binding affinity of antibodies of the disclosed invention may be measured or determined by standard antibody-antigen assays. The relative KD was calculated by dividing the KD of the humanized variant by that of the VH0/VK0 assayed in the same experiment.

kd | Molecule
9.88e-05 s⁻¹ | VH0/VK1: anti-PD-L2 variant on hIgG1; SEQ ID NO: 1/SEQ ID NO: 10 (antibody, V domains shown, human IgG1 constant regions) VH: QVQLQQSGAELVRPGTSVKVSCKASGYAFSNYFIEWVKQRPGQGLEWIGLNIPGSGGSNYAEKFKGKATLTADKSSSTAYMQLSSLTSEDSAVYFCARRRLPPDWYFDVWGTGTTVTVSS VL: DVVMTQSPLSLPVTLGQPASISCRSSQSLVHSDGNTYLHWYQQKPGQPPKLLIYKVSNRFSGVPDRFSGSGSGTDFTLKISRVEAEDVGVYFCSQSTHVPWTFGGGTKVEIK
0.000116 s⁻¹ | VH1/VK2: humanized anti-PD-L2 variant; SEQ ID NO: 2/SEQ ID NO: 11 (antibody, V domains shown) VH: QVQLVQSGAELKKPGSSVKVSCKASGYAFSNYFIEWVKQPPGKGLEWIGLNIPGSGGSNYAEKFKGRATITADKSTSTAYMELSSLTSEDSAVYFCARRRLPPDWYFDVWGQGTTVTVSS VL: DVVMTQSPLSLPVTLGQPASISCRSSQSLVHSDGNTYLHWYQQKPGQPPKLLIYKVSNRFSGVPDRFSGSGSGTDFTLKISRVEAEDVGVYYCSQSTHVPWTFGGGTKVEIK
0.000365 s⁻¹ | VH1/VK3: humanized anti-PD-L2 variant; SEQ ID NO: 2/SEQ ID NO: 12 (antibody, V domains shown) VH: QVQLVQSGAELKKPGSSVKVSCKASGYAFSNYFIEWVKQPPGKGLEWIGLNIPGSGGSNYAEKFKGRATITADKSTSTAYMELSSLTSEDSAVYFCARRRLPPDWYFDVWGQGTTVTVSS VL: DVVMTQSPLSLPVTLGQPASISCRSSQSLVHSGGNTYLHWYQQKPGQPPKLLIYKVSNRFSGVPDRFSGSGSGTDFTLKISRVEAEDVGVYFCSQSTHVPWTFGGGTKVEIK
0.00012 s⁻¹ | VH8/VK1: humanized anti-PD-L2 variant; SEQ ID NO: 8/SEQ ID NO: 10 (antibody, V domains shown) VH: QVQLVQSGAEVKKPGSSVKVSCKASGYAFSNYFIEWVKQPPGKGLEWIGLNIPGSGGSNYAEKFKGRATITADKSTSTAYMELSSLRSEDTAVYYCARRRLPPDWYFDVWGQGTTVTVSS VL: DVVMTQSPLSLPVTLGQPASISCRSSQSLVHSDGNTYLHWYQQKPGQPPKLLIYKVSNRFSGVPDRFSGSGSGTDFTLKISRVEAEDVGVYFCSQSTHVPWTFGGGTKVEIK
0.000125 s⁻¹ | VH4/VK1: humanized anti-PD-L2 variant; SEQ ID NO: 5/SEQ ID NO: 10 (antibody, V domains shown) VH: QVQLVQSGAEVKKPGSSVKVSCKASGYAFSNYFIEWVKQPPGKGLEWIGLNIPGSGGSNYAEKFKGRVTITADKSTSTAYMELSSLRSEDTAVYYCARRRLPPDWYFDVWGQGTTVTVSS VL: DVVMTQSPLSLPVTLGQPASISCRSSQSLVHSDGNTYLHWYQQKPGQPPKLLIYKVSNRFSGVPDRFSGSGSGTDFTLKISRVEAEDVGVYFCSQSTHVPWTFGGGTKVEIK

Continued, molecule first:

Molecule | kd
VH1/VK1: humanized anti-PD-L2 variant; SEQ ID NO: 2/SEQ ID NO: 10 (antibody, V domains shown) VH: QVQLVQSGAELKKPGSSVKVSCKASGYAFSNYFIEWVKQPPGKGLEWIGLNIPGSGGSNYAEKFKGRATITADKSTSTAYMELSSLTSEDSAVYFCARRRLPPDWYFDVWGQGTTVTVSS VL: DVVMTQSPLSLPVTLGQPASISCRSSQSLVHSDGNTYLHWYQQKPGQPPKLLIYKVSNRFSGVPDRFSGSGSGTDFTLKISRVEAEDVGVYFCSQSTHVPWTFGGGTKVEIK | 0.00011 s⁻¹
VH8/VK3: humanized anti-PD-L2 variant; SEQ ID NO: 8/SEQ ID NO: 12 (antibody, V domains shown) VH: QVQLVQSGAEVKKPGSSVKVSCKASGYAFSNYFIEWVKQPPGKGLEWIGLNIPGSGGSNYAEKFKGRATITADKSTSTAYMELSSLRSEDTAVYYCARRRLPPDWYFDVWGQGTTVTVSS VL: DVVMTQSPLSLPVTLGQPASISCRSSQSLVHSGGNTYLHWYQQKPGQPPKLLIYKVSNRFSGVPDRFSGSGSGTDFTLKISRVEAEDVGVYFCSQSTHVPWTFGGGTKVEIK | 0.000388 s⁻¹
VH3/VK3: humanized anti-PD-L2 variant; SEQ ID NO: 4/SEQ ID NO: 12 (antibody, V domains shown) VH: QVQLVQSGAEVKKPGSSVKVSCKASGYAFSNYFIEWVKQPPGKGLEWIGLNIPGSGGSNYAEKFKGRVTITADKSTSTAYMELSSLRSEDSAVYFCARRRLPPDWYFDVWGQGTTVTVSS VL: DVVMTQSPLSLPVTLGQPASISCRSSQSLVHSGGNTYLHWYQQKPGQPPKLLIYKVSNRFSGVPDRFSGSGSGTDFTLKISRVEAEDVGVYFCSQSTHVPWTFGGGTKVEIK | 0.000497 s⁻¹
VH2/VK1: humanized anti-PD-L2 variant; SEQ ID NO: 3/SEQ ID NO: 10 (antibody, V domains shown) VH: QVQLVQSGAEVKKPGSSVKVSCKASGYAFSNYFIEWVKQPPGKGLEWIGLNIPGSGGSNYAEKFKGRATITADKSTSTAYMELSSLRSEDSAVYFCARRRLPPDWYFDVWGQGTTVTVSS VL: DVVMTQSPLSLPVTLGQPASISCRSSQSLVHSDGNTYLHWYQQKPGQPPKLLIYKVSNRFSGVPDRFSGSGSGTDFTLKISRVEAEDVGVYFCSQSTHVPWTFGGGTKVEIK | 0.000119 s⁻¹
VH2/VK3: humanized anti-PD-L2 variant; SEQ ID NO: 3/SEQ ID NO: 12 (antibody, V domains shown) VH: QVQLVQSGAEVKKPGSSVKVSCKASGYAFSNYFIEWVKQPPGKGLEWIGLNIPGSGGSNYAEKFKGRATITADKSTSTAYMELSSLRSEDSAVYFCARRRLPPDWYFDVWGQGTTVTVSS VL: DVVMTQSPLSLPVTLGQPASISCRSSQSLVHSGGNTYLHWYQQKPGQPPKLLIYKVSNRFSGVPDRFSGSGSGTDFTLKISRVEAEDVGVYFCSQSTHVPWTFGGGTKVEIK | 0.000414 s⁻¹
VH3/VK2: humanized anti-PD-L2 variant; SEQ ID NO: 4/SEQ ID NO: 11 (antibody, V domains shown) VH: QVQLVQSGAEVKKPGSSVKVSCKASGYAFSNYFIEWVKQPPGKGLEWIGLNIPGSGGSNYAEKFKGRVTITADKSTSTAYMELSSLRSEDSAVYFCARRRLPPDWYFDVWGQGTTVTVSS VL: DVVMTQSPLSLPVTLGQPASISCRSSQSLVHSDGNTYLHWYQQKPGQPPKLLIYKVSNRFSGVPDRFSGSGSGTDFTLKISRVEAEDVGVYYCSQSTHVPWTFGGGTKVEIK | 0.000132 s⁻¹
VH7/VK1: humanized anti-PD-L2 variant; SEQ ID NO: 7/SEQ ID NO: 10 (antibody, V domains shown) VH: QVQLVQSGAELKKPGSSVKVSCKASGYAFSNYFIEWVKQPPGKGLEWIGLNIPGSGGSNYAEKFKGRATITADKSTSTAYMELSSLRSEDTAVYYCARRRLPPDWYFDVWGQGTTVTVSS VL: DVVMTQSPLSLPVTLGQPASISCRSSQSLVHSDGNTYLHWYQQKPGQPPKLLIYKVSNRFSGVPDRFSGSGSGTDFTLKISRVEAEDVGVYFCSQSTHVPWTFGGGTKVEIK | 0.000113 s⁻¹
VH3/VK1: humanized anti-PD-L2 variant; SEQ ID NO: 4/SEQ ID NO: 10 (antibody, V domains shown) VH: QVQLVQSGAEVKKPGSSVKVSCKASGYAFSNYFIEWVKQPPGKGLEWIGLNIPGSGGSNYAEKFKGRVTITADKSTSTAYMELSSLRSEDSAVYFCARRRLPPDWYFDVWGQGTTVTVSS VL: DVVMTQSPLSLPVTLGQPASISCRSSQSLVHSDGNTYLHWYQQKPGQPPKLLIYKVSNRFSGVPDRFSGSGSGTDFTLKISRVEAEDVGVYFCSQSTHVPWTFGGGTKVEIK | 0.000128 s⁻¹
VH4/VK3: humanized anti-PD-L2 variant; SEQ ID NO: 5/SEQ ID NO: 12 (antibody, V domains shown) VH: QVQLVQSGAEVKKPGSSVKVSCKASGYAFSNYFIEWVKQPPGKGLEWIGLNIPGSGGSNYAEKFKGRVTITADKSTSTAYMELSSLRSEDTAVYYCARRRLPPDWYFDVWGQGTTVTVSS VL: DVVMTQSPLSLPVTLGQPASISCRSSQSLVHSGGNTYLHWYQQKPGQPPKLLIYKVSNRFSGVPDRFSGSGSGTDFTLKISRVEAEDVGVYFCSQSTHVPWTFGGGTKVEIK | 0.000466 s⁻¹
VH7/VK3: humanized anti-PD-L2 variant; SEQ ID NO: 7/SEQ ID NO: 12 (antibody, V domains shown) VH: QVQLVQSGAELKKPGSSVKVSCKASGYAFSNYFIEWVKQPPGKGLEWIGLNIPGSGGSNYAEKFKGRATITADKSTSTAYMELSSLRSEDTAVYYCARRRLPPDWYFDVWGQGTTVTVSS VL: DVVMTQSPLSLPVTLGQPASISCRSSQSLVHSGGNTYLHWYQQKPGQPPKLLIYKVSNRFSGVPDRFSGSGSGTDFTLKISRVEAEDVGVYFCSQSTHVPWTFGGGTKVEIK | 0.000344 s⁻¹
VH2/VK2: humanized anti-PD-L2 variant; SEQ ID NO: 3/SEQ ID NO: 11 (antibody, V domains shown) VH: QVQLVQSGAEVKKPGSSVKVSCKASGYAFSNYFIEWVKQPPGKGLEWIGLNIPGSGGSNYAEKFKGRATITADKSTSTAYMELSSLRSEDSAVYFCARRRLPPDWYFDVWGQGTTVTVSS VL: DVVMTQSPLSLPVTLGQPASISCRSSQSLVHSDGNTYLHWYQQKPGQPPKLLIYKVSNRFSGVPDRFSGSGSGTDFTLKISRVEAEDVGVYYCSQSTHVPWTFGGGTKVEIK | 0.000122 s⁻¹
